Non-standard residues stand in square brackets, D forms with d. No end group written: not given here.
Columns and labels:
[1] = target: T1, human gpr-54 receptor (human, UniProt Q969F8 1-398); assay: whole-cell competition binding against 125I-kisspeptin, CHO cells stably transfected with hGPR54 (CPM) [187]
T1 construct: whole, on cells; CHO cells stably expressing the human gpr-54 receptor came from Prof; G. Vassart; also called kisspeptin receptor; AXOR12
Experimental: (§1) Cell monolayers were placed on ice and exposed to 0.5 mls peptide (10 pM-1 uM); the cells were then incubated at 4° C. for 4 hr. After 4 hrs, cells were washed twice with ice cold Dulbecco's phosphate buffered saline (DPBS; with Calcium and Magnesium) and then 0.5 mls 0.1M Sodium Hydroxide (NaOH) were added to cells for 20 minutes, shaking to lyse cells. Lysates were transferred to plastic tubes and bound radioactivity counted on the gamma counter for 60 seconds.

[2] = target: T1, human gpr-54 receptor; assay: cell-based or functional assay
[3] = target: T1, human gpr-54 receptor; assay: cell-based or functional assay; remark: listed apart in the source
[4] = target: T1, human gpr-54 receptor; assay: cell-based or functional assay; remark: listed apart in the source
[5] = target: T1, human gpr-54 receptor; assay: competition of I125-labelled kisspeptin-10 on gpr-54 cells (CPM x 10^3); the legend calls the number an affinity
[6] = target: T1, human gpr-54 receptor; assay: cell-based or functional assay; remark: listed apart in the source
[7] = target: T1, human gpr-54 receptor; assay: whole-cell competition binding against 125I-kisspeptin, CHO cells stably transfected with GPR54 (CPM) [234]
Experimental: as §1

[8] = target: T1, human gpr-54 receptor; assay: cell-based or functional assay; remark: listed apart in the source
[9] = target: T1, human gpr-54 receptor; assay: whole-cell competition binding against 125I-kisspeptin, CHO cells stably transfected with GPR54 (CPM); the fall of the curve lies between Total and -10 LogM [228]
Experimental: as §1

[10] = target: T1, human gpr-54 receptor; assay: whole-cell competition binding against 125I-kisspeptin, CHO cells stably transfected with GPR54 (CPM); the fall of the curve lies between Total and -10 LogM [231]
Experimental: as §1

[11] = target: T1, human gpr-54 receptor; assay: cell-based or functional assay; remark: listed apart in the source
[12] = target: T1, human gpr-54 receptor; assay: whole-cell competition binding against 125I-kisspeptin, CHO cells stably transfected with GPR54 (CPM) [229]
Experimental: as §1

[13] = target: T1, human gpr-54 receptor; assay: cell-based or functional assay; remark: listed apart in the source
[14] = target: T1, human gpr-54 receptor; assay: whole-cell competition binding against 125I-kisspeptin, CHO cells stably transfected with GPR54 (CPM); the fall of the curve lies between Total and -10 LogM [200]
Experimental: as §1

[15] = target: T1, human gpr-54 receptor; assay: cell-based or functional assay; remark: listed apart in the source
[16] = target: T1, human gpr-54 receptor; assay: cell-based or functional assay; remark: listed apart in the source
[17] = target: T1, human gpr-54 receptor; assay: whole-cell competition binding against 125I-kisspeptin, CHO cells stably transfected with hGPR54 (CPM) [188]
Experimental: as §1

T1 sequence (Q969F8 whole entry): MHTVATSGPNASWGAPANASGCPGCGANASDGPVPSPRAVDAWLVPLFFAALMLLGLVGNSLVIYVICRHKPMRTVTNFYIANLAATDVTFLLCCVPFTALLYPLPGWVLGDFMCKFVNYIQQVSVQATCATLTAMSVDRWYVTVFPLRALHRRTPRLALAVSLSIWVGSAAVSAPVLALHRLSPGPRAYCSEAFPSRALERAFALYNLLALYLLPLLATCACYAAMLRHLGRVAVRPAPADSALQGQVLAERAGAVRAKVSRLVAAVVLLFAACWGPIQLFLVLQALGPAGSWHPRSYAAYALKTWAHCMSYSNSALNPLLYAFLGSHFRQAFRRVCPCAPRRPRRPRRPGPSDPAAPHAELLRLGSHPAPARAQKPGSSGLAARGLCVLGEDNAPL

In the case of YNWNSFGLRW-NH2 (kisspeptin-10 analogue) [187], the IC50 [1] is reported as 211 nM, the “IP dose response, peptide alone: EC50 (unlabelled number beside rising curve) [187]” value [2] is reported as 72.1 nM and the “IP stimulation (IC50), peptide alone” value [3] is reported as 40 nM. The “Inhibition of IP stimulation by 10nM Agonist: % Inhibition of Max” value (shortened to “Inhibition … % Inhibition of Max”) [3] was 36%.

For [dA]NWNGFG[dW]RF-NH2 [Peptide 234], the “IC50 of inhibition of 10 nM kisspeptin-10 stimulation of IP” value [4] was 7 nM, the “IC50 of inhibition of kisspeptin stimulation of IP” value [4] was less than 10 nM and the IC50 [5] was 2.8 nM. The “IP competition with 10nM kisspeptin-10: IC50 [234]” value [6] was 70 nM, the IC50 [7] was 2.79 nM and the “Inhibition of IP stimulation by 10nM Agonist: IC50” value (from here on “Inhibition of IP stimulation … IC50”) [3] was 70 nM.

B1: 228 (peptide)
peptide: Ac-YNWNGFG[dW]RF-NH2
SMILES: CC(=O)N[C@@H](Cc1ccc(O)cc1)C(=O)N[C@@H](CC(N)=O)C(=O)N[C@@H](Cc1c[nH]c2ccccc12)C(=O)N[C@@H](CC(N)=O)C(=O)NCC(=O)N[C@@H](Cc1ccccc1)C(=O)NCC(=O)N[C@H](Cc1c[nH]c2ccccc12)C(=O)N[C@@H](CCCNC(=N)N)C(=O)N[C@@H](Cc1ccccc1)C(N)=O
notes: kisspeptin-10 analogue; also called acYNWNGFG[(D)-W]RF
In the case of B1, the “IP competition with 10nM kisspeptin-10: IC50 [228]” value [8] is reported as 50 nM, the IC50 [9] is reported as 0.00655 nM and the “Inhibition … % Inhibition of Max” value [3] is reported as 58%. The “Inhibition of IP stimulation … IC50” value [3] was 50 nM.

B2: 231 (peptide)
peptide: Ac-YN[dW]NGFG[dW]RF-NH2
SMILES: CC(=O)N[C@@H](Cc1ccc(O)cc1)C(=O)N[C@@H](CC(N)=O)C(=O)N[C@H](Cc1c[nH]c2ccccc12)C(=O)N[C@@H](CC(N)=O)C(=O)NCC(=O)N[C@@H](Cc1ccccc1)C(=O)NCC(=O)N[C@H](Cc1c[nH]c2ccccc12)C(=O)N[C@@H](CCCNC(=N)N)C(=O)N[C@@H](Cc1ccccc1)C(N)=O
notes: kisspeptin-10 analogue; also called acYN[(D)-W]NGFG[(D)-W]RF
For B2, the IC50 [10] was 0.000564 nM, the “IP competition with 10nM kisspeptin-10: IC50 [231]” value [11] was 0.1 nM and the “Inhibition … % Inhibition of Max” value [3] was 55%. For the same binder, the “Inhibition of IP stimulation … IC50” value [3] was 0.1 nM.

B3: 229 (peptide)
peptide: Ac-YNWN[dW]FG[dW]RF-NH2
SMILES: CC(=O)N[C@@H](Cc1ccc(O)cc1)C(=O)N[C@@H](CC(N)=O)C(=O)N[C@@H](Cc1c[nH]c2ccccc12)C(=O)N[C@@H](CC(N)=O)C(=O)N[C@H](Cc1c[nH]c2ccccc12)C(=O)N[C@@H](Cc1ccccc1)C(=O)NCC(=O)N[C@H](Cc1c[nH]c2ccccc12)C(=O)N[C@@H](CCCNC(=N)N)C(=O)N[C@@H](Cc1ccccc1)C(N)=O
notes: kisspeptin-10 analogue; also called acYNWN[(D)-W]FG[(D)-W]RF
For B3, the IC50 [12] was 1.17 nM, the “IP competition with 10nM kisspeptin-10: IC50 [229]” value [13] was 8000 nM and the “Inhibition … % Inhibition of Max” value [3] was 68%. For the same binder, the “Inhibition of IP stimulation … IC50” value [3] was 8000 nM.

B4: 200 (peptide)
peptide: Ac-FGL[dR]W-NH2
modifications: not fully specified
notes: kisspeptin-10 analogue; also called acFGL[(D)-R]W
B4 was tested, and the IC50 [14] was 0.00249 nM, the “IP competition with 10nM kisspeptin-10: IC50 [200]” value [15] was 300 nM and the “Inhibition … % Inhibition of Max” value [3] was 63%. For the same binder, the “Inhibition of IP stimulation … IC50” value [3] was 300 nM.

B5: 188 (peptide)
peptide: Ac-FGLRF-NH2
notes: kisspeptin-10 analogue; also called Peptide 188; acFGLRF
In the case of B5, the “IP competition with 10nM kisspeptin-10: IC50 [188]” value [16] is reported as less than 0.1 nM, the “IP dose response, peptide alone: EC50 (unlabelled number beside rising curve) [188]” value [16] is reported as 92.3 nM and the IC50 [17] is reported as 143 nM. For the same binder, the “IP stimulation (IC50), peptide alone” value [3] was 125 nM and the “Inhibition … % Inhibition of Max” value [3] was 74%.

Reference: US20110046068A1 (MEDICAL RESEARCH COUNCIL, published 2011)
